Test results reported in patent US20140271478A1 (University of California, published 2014).

Each binder was assayed against integrin αβ8 (αvβ8), form in the assay not stated (UniProt P06756) (assay: affinity determination of scFv; method and antigen form not stated).
Sequence of integrin αβ8 (αvβ8), form in the assay not stated (UniProt P06756) (chain, as listed by the source, chain 1 of 2): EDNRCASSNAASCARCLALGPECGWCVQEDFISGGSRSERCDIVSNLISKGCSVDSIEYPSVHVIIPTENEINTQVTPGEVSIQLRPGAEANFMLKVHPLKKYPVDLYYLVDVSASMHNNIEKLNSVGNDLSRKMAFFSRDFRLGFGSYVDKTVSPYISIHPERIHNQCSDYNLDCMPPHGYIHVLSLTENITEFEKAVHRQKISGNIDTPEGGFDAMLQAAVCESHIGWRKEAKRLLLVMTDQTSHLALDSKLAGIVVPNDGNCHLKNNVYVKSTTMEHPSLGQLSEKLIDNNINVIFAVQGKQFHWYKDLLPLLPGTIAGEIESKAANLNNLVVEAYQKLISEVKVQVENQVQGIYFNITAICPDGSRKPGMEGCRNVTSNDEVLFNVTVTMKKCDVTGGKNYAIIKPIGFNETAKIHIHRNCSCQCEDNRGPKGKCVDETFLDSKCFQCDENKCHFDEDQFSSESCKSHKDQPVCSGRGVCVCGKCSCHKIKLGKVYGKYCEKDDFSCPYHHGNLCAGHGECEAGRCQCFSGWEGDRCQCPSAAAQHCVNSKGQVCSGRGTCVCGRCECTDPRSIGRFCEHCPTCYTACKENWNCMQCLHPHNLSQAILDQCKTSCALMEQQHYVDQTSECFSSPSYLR
Sequence of integrin αβ8 (αvβ8), form in the assay not stated (UniProt P06756) (P06756 31-992, chain 2 of 2): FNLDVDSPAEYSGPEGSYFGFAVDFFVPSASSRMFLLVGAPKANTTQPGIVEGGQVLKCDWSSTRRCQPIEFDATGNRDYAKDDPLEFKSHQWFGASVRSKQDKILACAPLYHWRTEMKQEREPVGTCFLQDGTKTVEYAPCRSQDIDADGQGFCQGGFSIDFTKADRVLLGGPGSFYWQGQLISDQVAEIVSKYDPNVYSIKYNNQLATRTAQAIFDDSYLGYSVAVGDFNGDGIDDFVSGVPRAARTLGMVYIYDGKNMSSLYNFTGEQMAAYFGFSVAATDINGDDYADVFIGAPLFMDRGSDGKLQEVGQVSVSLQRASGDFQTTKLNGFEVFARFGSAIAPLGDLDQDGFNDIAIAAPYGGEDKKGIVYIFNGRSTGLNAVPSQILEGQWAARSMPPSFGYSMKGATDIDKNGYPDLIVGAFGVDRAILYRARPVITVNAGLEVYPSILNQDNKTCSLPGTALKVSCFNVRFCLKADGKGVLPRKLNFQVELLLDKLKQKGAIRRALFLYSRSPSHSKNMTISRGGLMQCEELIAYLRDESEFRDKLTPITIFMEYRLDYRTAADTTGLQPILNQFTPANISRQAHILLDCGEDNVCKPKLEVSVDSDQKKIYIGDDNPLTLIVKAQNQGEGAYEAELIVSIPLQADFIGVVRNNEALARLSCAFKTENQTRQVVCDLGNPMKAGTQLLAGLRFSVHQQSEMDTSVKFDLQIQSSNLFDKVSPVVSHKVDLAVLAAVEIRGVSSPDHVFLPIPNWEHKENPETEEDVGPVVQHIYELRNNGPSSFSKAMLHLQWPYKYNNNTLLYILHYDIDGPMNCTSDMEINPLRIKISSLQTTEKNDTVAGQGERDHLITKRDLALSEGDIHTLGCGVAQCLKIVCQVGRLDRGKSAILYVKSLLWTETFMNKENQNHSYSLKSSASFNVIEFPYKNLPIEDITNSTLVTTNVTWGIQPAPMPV

Kd [nM]	Binder
21.1	11E8Mut39 scFv (scFv, V domains shown, part only, linker not given; order not stated) VH: EVQLQQSGPELMKTGASVKISCKATGYTFSTYWIEWVKQRPGHGLEWIGHTLPGSGTTNYNEKFKGRATITADRPSNTSYMQLSSLTYGDSAVFYCATWGWDTYWDHGTSVTVSS VL: DIEMTQSPSSLSASLGDRVTISCSTSQDVSSYLNWYQQKPDGTVTLLIYYASNLHSGVPSRFSGSGSGTDYSLAISNLEPEDIATYYCQQYSNLPYTFGGGTKLEIKA
3.2	11E8Mut94 scFv (scFv, V domains shown, part only, linker not given; order not stated) VH: EVQLQQSGPELMKTGASVKISCKATGYTFSSYWIEWVKQRPGHGLEWIGDILPGSGTTNYNEKFEGRAAITADTSSNTSYMQLSSLTSEDSAVYYCARWGWDSYWGQGTLVTVSS VL: DIKMTQTPSSLSASLGDRVTISCSASQGISNYLNWYQQKPDGTVKLLIYYTSSLHSGVPSRFSGSGSGTDYSLTISNLEPEDIATYYCQQYSNLPYTFGGGTKLEIKR
1.42	14E5Mut68 scFv (scFv, V domains shown, part only, linker not given; order not stated) VH: EVQLQQSGAELMKPGASVKISCKATGYTFSTYWIEWIKQRPGHGLEWIGDILPGSGTTNYNEKFKGRATVTADRSSNTAYMQLSSLTSEDSAVYYCARWGWDSYWGQGTLVTVSS VL: DIKMTQSPSSLSASLGDRVTISCSASQGISNYLNWYQQKPDGTVKLLIYYTSSLHSGVPSRFSGSGSGTDYSLTISNLEPEDIATYYCQQYSELPYTFGGGTKLEIKR
2.09	14E5Mut54 scFv (scFv, V domains shown, part only, linker not given; order not stated) VH: EVQLQQSGAELMKPGASVKISCKATGYTFSTNWIEWIKQRPGHGLEWIGHILPGSVITNYNEKFKGKAAITADTSSNTSYMQLSSLTSEDSAVYYCARWGWDSYWGQGTLVTVSS VL: DIVMTQTPSSLSASLGDRVTIRCSASQGISNYLNWYQQKPDGTVKLLIYYTSSLHSGVPSRFSGSGSGTDYSLTISNLEPEDIATYYCQQYSNLPYTFGGGTKLEIKR

Each binder was assayed against integrin αβ8 (αvβ8), form in the assay not stated (UniProt P06756 31-992) in the same assay as above.
Sequence of integrin αβ8 (αvβ8), form in the assay not stated (UniProt P06756 31-992) (chain, as listed by the source, chain 1 of 2): as the sequence (chain, as listed by the source, chain 1 of 2) above
Sequence of integrin αβ8 (αvβ8), form in the assay not stated (UniProt P06756 31-992) (P06756 31-992, chain 2 of 2): as the sequence (P06756 31-992, chain 2 of 2) above

Kd [nM]	Binder
> 250	11E8 scFv (scFv, V domains shown) VH: EVQLQQSGPELMKTGASVKISCKATGYTFSSYWIEWVKQRPGHGLEWIGDILPGSGTTNYNEKFKGRATVTADRSSNTAYMQLSSLTYGDSAVYYCATWGWDTYWDQGTSVTVSS VL: DIVMTQSPSSLSASLGDRVTISCSASQGISNYLNWYQQKPDGTVKLLIYYTSSLHSGVPSRFSGSGSGTDYSLTISNLEPEDIATYYCQQYSNLPYTFGGGTKLEIK
> 100	4F1 scFv (scFv, V domains shown) VH: QVQLQQSGAELVRPGTSVKVSCKASGYAFTNYLIEWVKQRPGQGLEWIGVINPGTGGTNYNKKFKVKATLTADKSSSTAYMQLGGLTFDDSAVYFCAREGNARTYYYAMDYWGQGTSVTVSS VL: DIEMTQTPASLSASVGETVTITCRASENIYSYLVWYQQKQGKSPQVLVYNAKTLAEGVPSRFSGSGSGTQFSLKINSLQPEDFGSYYCQHHNGTPYTFGGGTKLEIK
14.8	6B9 scFv (scFv, V domains shown) VH: QVQLQQSGAELVRPGTSVKVSCKASGYAFTDYLIEWVKQRPGQGLEWIGVINPETGGTNYNAKFKGKATLTADKSSSSAYMQLSSLTSGDSAVYFCAREAGNYIYAMDYWGQGTSVTVSS VL: DIQMTQSPASLSASVGETVTITCRASVNIYSYLVWYQQKQGKSPQLLVHNAKTLAEGVPSRFSGSGSGTQFSLKINSLQPEDFGSYYCQHHHGTPYTFGGGTKLEIK
9.34	6B9Mut1 scFv (scFv, V domains shown) VH: QVQLQQSGAELVRPGTSVKVSCKASGYAFTDYLIEWVKQRPGQGLEWIGVINPETGGTNYNAKFRGKATLTADKSSSSAYMQLSSLTSGDSAVYFCAREAGNYIYAMDYWGQGTSVTVSS VL: DIVMTQSPASLSASVGETVTITCRASVNIYSYLVWYQQKQGKSPQLLVHNAKTLAEGVPSRFSGSGSGTQFSLKINSLQPEDFGSYYCQHHHGTPYTFGGGTKLEIK
3.52	11E8Mut28 scFv (scFv, V domains shown) VH: EVQLQQSGPELMKTGASVKISCKATGYTFSSYWIEWVKQRPGHGLEWIGDILPGSGTTNYNEKFKGKAAITADTSSNTSYLQLSSLTSEDSAVYYCARWGWDSYWGQGTLVTVSS VL: DIVMTQSPSSLSASLGDRVTISCSASQGISNYLNWYQQKPDGTVKLLIYYTSSLHSGVPSRFSGSGSGTDYSLTISNLEPEDIATYYCQQFSNLPYTFGGGTKLEIK
14	14E5 scFv (scFv, V domains shown) VH: EVQLQQSGAELMKPGASVKISCKATGYTFSTYWIEWIKQRPGHGLEWIGHILPGSVITNYNEKFKGKAAITADTSSNTSYMQLSSLTSEDSAVYYCARWGWDSYWGQGTLVTVSS VL: DIEMTQSPSSLSASLGDRVTISCSTSQDISSSLNWYQQKPDGTVTLLIYYTSNLHSGVPSRFSGSGSGTDYSLTISNLEPEDIATYYCQQYSKLPYTFGGGTKLEIK
3.85	14E5Mut11 scFv (scFv, V domains shown) VH: EVQLQQSGAELMKPGASVKISCKATGYTFSTNWIEWIKQRPGHGLEWIGHILPGSVITNYNEKFKGKAAITADTSSNTSYMQLSSLTSEDSAVYYCARWGWDSYWGQGTLVTVSS VL: DILMTQSPSSLSASLGDRVTISCSASQGISKYLNWYQQKPDGTVKLLIYYTSSLHSGVPSRFSGSGSGTDYSLTISNLEPEDIATYYCQQYSNLPYTFGGGTKLEIK
1.83	14E5Mut95 scFv (scFv, V domains shown) VH: EVQLQQTGAELMKPGASVKISCKATGYTFSTYWIEWIKQRPGHGLEWIGHILPGSVITNYNEKFKGKAVITADTSSNTSYMQLSSLTSEDSAVYYCARWGWDSYWGQGTLVTVSS VL: DIEMTQSPSSLSASLGDRVTISCSASQGISNYLNWYQQKPDGTVKLLIYYTSSLHSGVPSRFSGSGSGTDYSLTISNLEPEDIATYYCQQYSDLPYTFGGGTKLEIK
1.79	14E5Mut83 scFv (scFv, V domains shown) VH: EVQLQQSGAVLMKPGASVKISCKATGYTFSTHWIEWIKQRPGHGLEWIGHILPGSVITNYNEKFKGKAAITADTSSNTSYMQLSSLTSEDSAVYYCARWGWDSYWGQGTLVTVSS VL: DILMTQSPSSLSASLGDRVTISCSASQGISNYLNWYQQKPDGTVKLLIYYTSSLHSGVPSRFSGSGSGTDYSLTISNLEPEDIATYYCQQYSDLPYTFGGGTKLEIK
3.35	14E5Mut42 scFv (scFv, V domains shown) VH: EVPLQQSGAELMKPGASVKISCKATGYTFSTYWIEWIKQRPGHGLEWIGHILPGSVITNYNEKFKGKAAITADTSSNTSYMQLSSLTSEDSAVYYCARWGWDSYWGQGTLVTVSS VL: DIVMTQTPSSLSASLGDRVTISCSASQGISNYLNWYQQKPDGTVKLLIYYTSSLHSGVPSRFSGSGSGTDYSLTISNLEPEDIATYYCQQYSDLPYTFGGGTKLEIK
3.04	14E5Mut65 scFv (scFv, V domains shown) VH: QVQLQQSGAELMKPGASVKISCKATGYSFSTNWIEWIKQRPGHGLEWIGHILPGSVITNYNEKFKGKAAITADTSSNTSYMQLSSLTSDDSAVYYCARWGWDSYWGQGTLVTVSS VL: DIKMTQSPSSLSASLGDRVTISCSASQGISNYLNWYQQKPDGTVKLLIYYTSSLHSGVPSRFSGSGSGTDYSLTISNLEPEDIATYYCQQFSNLPYTFGGGTKLEIK
